We go through twelve sequences from the DeepSol protein solubility set.

This data set in a line: soluble on expression in E. coli; label from the status in PepcDB or PDB records.
For “MNPKSSLADGAHIGNYQIVKTLGEGSFGKVKLAYHTTTGQKVALKIINKKVLAKSDMQGRIEREISYLRLLRHPHIIKLYDVIKSKDEIIMVIEYAGNELFDYIVQRDKMSEQEARRFFQQIISAVEYCHRHKIVHRDLKPENLLLDEHLNVKIADFGLSNIMTDGNFLKTSCGSPNYAAPEVISGKLYAGPEVDVWSCGVILYVMLCRRLPFDDESIPVLFKNISNGVYTLPKFLSPGAAGLIKRMLIVNPLNRISIHEIMQDDWFKVDLPEYLLEHHHHHH”, the “soluble on expression in E. coli” value is “soluble”. The entry for “LGSLLEVAIPKPGNVSRYKDFEDLTFYHFLFGNTALIGPYFEATERGILLKEGKINESEVGIGELIRMAVAATKKYQDANPNFGIIVLSIPLIVSLSSGASIEDAGKMATRLISKSTPLDTVELYKAIRIANPKGIPRGVKYDVYSDTSFEDLVRDGINLYKLAEISCERELVFCEWLNNYDLTYETLKLLENNLEKEDLEGKVRKTFVVLLSKYEDTLIIRKAGIQEAKKVKEMATQLLKNKITEEEFERFMYEKRDLRNPGSLADIMATAL” is “not soluble”; for “MGSDKIHHHHHHMATVAFHTLGCKVNHYETEAIWQLFKEAGYERRDFEQTADVYVINTCTVTNTGDKKSRQVIRRAIRQNPDGVICVTGCYAQTSPAEIMAIPGVDIVVGTQDREKMLGYIDQYREERQPINGVSNIMKARVYEELDVPAFTDRTRASLKIQEGCNNFCTFCIIPWARGLLRSRDPEEVIKQAQQLVDAGYKEIVLTGIHTGGYGEDMKDYNFAKLLSELDTRVEGVKRIRISSIEASQITDEVIEVLDRSDKIVNHLHIPIQSGSNTVLKRMRRKYTMEFFADRLNKLKKALPGLAVTSDVIVGFPGETEEEFMETYNFIKEHKFSELHVFPYSKRTGTPAARMEDQVDENVKNERVHRLIALSDQLAKEYASQYENEVLEIIPEEAFKETEEENMFVGYTDNYMKVVFKGTEDMIGKIVKVKILKAGYPYNEGQFVRVVEDEITEHMRLSS” it is “not soluble”; for “VFLGKTSPDFNLGWSNSLSYKGFGLSFLINGRFGGVVTSSTQAILDRFGVSKASAEARDAGGVLLPGQGRVDAQSYYQLIGTGDYTTSGYYVYSATNIRLQELTLSYRFPDLWFKNVLKDVTLSFIANNPWMLYSKAPHDPELTPSVGTYGQGNDYFMQPSVRSFGFGIKFKL” it is “not soluble”. As to “MIRIAYVSTYPPRRCGLATFTEHLRQSIDGVRGPSDGDRVIVLYNESDGDDAYRNDPAYWPLPAQNRAAYAEMAKRVNESDIDVVLLQHEFGIFGGEAGEYILDFIAALNKPLVTTFHTVFADPPLPYRPIQGKIAAASDAIIVMNRQAIPYLVKAFGLPEEKIVYIPHGAPGPSSENRDSLRRRLGFSGRKVMLTFGLLSRGKGIESVLAALPGVVRKVPEALYVIAGQTHPEVKKREGEAYREELKSLIHRLGLEHHVHMEDRYFSEEELIDYLTACDLYVTPYPGMQQITSGTLAYAVGVGRPVVSTPYEHARDLLRGCEELLLPYGDTTAWEERLGQLLADEAALKRWEEKVRQIGANTHWPRVGEQHVALFARMCAAKRGEVKTIGTVSH”, the “soluble on expression in E. coli” value is given as “not soluble”. On to “MEVAVEKAVAAAAAASAAASGGPSAAPSGENEAESRQGPDSERGGEAARLNLLDTCAVCHQNIQSRAPKLLPCLHSFCQRCLPAPQRYLMLPAPMLGSAETPPPVPAPGSPVSGSSPFATQVGVIRCPVCSQECAERHIIDNFFVKDTTEVPSSTVEKSNQVCTSCEDNAEANGFCVECVEWLCKTCIRAHQRVKFTKDHTVRQKEEVSPEAVGVTSQRPVFCPFHKKEQLKLYCETCDKLTCRDCQLLEHKEHRYQFIEEAFQNQKVIIDTLITKLMEKTKYIKFTGNQIQNRIIEVNQNQKQVEQDIKVAIFTLMVEINKKGKALLHQLESLAKDHRMKLMQQQQEVAGLSKQLEHVMHFSKWAVSSGSSTALLYSKRLITYRLRHLLRARCDASPVTNNTIQFHCDPSFWAQNIINLGSLVIEDKESQPQMPKQNPVVEQNSQPPSGLSSNQLSKFPTQISLAQLRLQHMQQQVMAQRQQVQRRPAPVGLPNPRMQGPIQQPSISHQQPPPRLINFQNHSPKPNGPVLPPHPQQLRYPPNQNIPRQAIKPNPLQMAFLAQQAIKQWQISSGQGTPSTTNSTSSTPSSPTITSAAGYDGKAFGSPMIDLSSPVGGSYNLPSLPDIDCSSTIMLDNIVRKDTNIDHGQPRPPSNRTVQSPNSSVPSPGLAGPVTMTSVHPPIRSPSASSVGSRGSSGSSSKPAGADSTHKVPVVMLEPIRIKQENSGPPENYDFPVVIVKQESDEESRPQNANYPRSILTSLLLNSSQSSTSEETVLRSDAPDSTGDQPGLHQDNSSNGKSEWLDPSQKSPLHVGETRKEDDPNEDWCAVCQNGGELLCCEKCPKVFHLSCHVPTLTNFPSGEWICTFCRDLSKPEVEYDCDAPSHNSEKKKTEGLVKLTPIDKRKCERLLLFLYCHEMSLAFQDPVPLTVPDYYKIIKNPMDLSTIKKRLQEDYSMYSKPEDFVADFRLIFQNCAEFNEPDSEVANAGIKLENYFEELLKNLYPEKRFPKPEFRNESEDNKFSDDSDDDFVQPRKKRLKSIEERQLLK”, for which the “soluble on expression in E. coli” value is given as “soluble”.

As for “GPGHAGIFTFEEPVTHVSESIGIMEVKVLRTSGARGNVIVPYKTIEGTARGGGEDFEDTCGELEFQNDEIVKTISVKVIDDEEYEKNKTFFLEIGEPRLVEMSEKKALLLNELGGFTITGKYLYGQPVFRKVHAREHPIPSTVITIAEEYDDKQPLTSKEEEERRIAEMGRPILGEHTKLEVIIEESYEFKS”, the “soluble on expression in E. coli” value is on record as “soluble”. With “GDSLTAQEALATLALSGDDDGPRQTRSYQVMNGIAVLPVSGTLVSRTRALQPYSGMTGYNGIIARLQQAASDPMVDGILLDMDTPGGMVAGAFDCADIIARVRDIKPVWALANDMNCSAGQLLASAASRRLVTQTARTGSIGVMMAHSNYGAALEKQGVEITLIYSGSHKVDGNPYSHLPDDVRETLQSRMDATRQMFAQKVSAYTGLSVQAVLDTEAAVYSGQEAIDAGLAD” the entry was “not soluble”; with “MSANDRRDRRVRVAVVFGGRSNEHAISCVSAGSILRNLDSRRFDVIAVGITPAGSWVLTDANPDALTITNRELPQVKSGSGTELALPADPRRGGQLVSLPPGAGEVLESVDVVFPVLHGPYGEDGTIQGLLELAGVPYVGAGVLASAVGMDKEFTKKLLAADGLPVGAYAVLRPPRSTLHRQECERLGLPVFVKPARGGSSIGVSRVSSWDQLPAAVARARRHDPKVIVEAAISGRELECGVLEMPDGTLEASTLGEIRVAGVRGREDSFYDFATKYLDDAAELDVPAKVDDQVAEAIRQLAIRAFAAIDCRGLARVDFFLTDDGPVINEINTMPGFTTISMYPRMWAASGVDYPTLLATMIETTLARGVGLH”, “soluble”; with “MNANLNMDVIRSALLAGEVDDAYKVIFNARKKLELYKSTTGDSRYDPYYEFISILDDVVRGRRSWKDLKAYIDGNMDALSKFIDPDFLRSFPYYLFFSIDRYNVRFPYFDGKRCDDR”, “not soluble”. The entry for “MTISGISSDQPFIETIDTLMLGGFPVLSTTPSAFVASLYRSLIEERQQRVFFANTNFIVQCQSLRGRMYSERVCILNDGIGMDLAALFIHGRRFVSNLNGTDLIPYLCQHAPRPLRFFLLGAKPGVADMAAQMLCQLGQLVVGTCDGYAQFVATGEDLVESINASGADVLLVALGNPVQERWILDHDVQLRTPLVFGVGALFDFMSGNVRRAPLWVRRVRGEWLYRLLLEPRRLLKRYSWDLLRFFGVCLLRRREGD” is “not soluble”; for “MISPNHLILLFCVNCAFLVASDATPKRSPLGTMRFGKRAIADEMTFEEDGYYPSNVMWKRSTVDSSEPVIRDQRTPLGTMRFGKRSAEPFGTMRFGKRNPENDTPFGTMRFGKRASEDALFGTMRFGKREDGNAPFGTMKFGKREAEEPLGTMRFGKRSADDSAPFGTMRFGKRNPLGTMRFGK” it is “not soluble”.
